Laboratory results published in patent US20070202544.

Tests used:
[1] = biological target: HA-tagged wild-type insulin 2 (UniProt P01326)
[2] = biological target: HA-tagged C96Y mutant insulin 2 (UniProt P01326)

For HRD1 (from plasmid HRD1-pCMVSPORT6), the “ubiquitination of insulin-2 (IP with anti-HA, immunoblot with anti-Flag for Flag-ubiquitin)” value [1] was “HRD1 expression did not increase the ubiquitination of wild-type insulin-2” and the “ubiquitination of insulin-2 (IP with anti-HA, immunoblot with anti-Flag for Flag-ubiquitin)” value [2] was “did increase that of C96Y insulin-2”.
